Data as given in the supplement of paper PMC11865577.

What was measured:
Experiment in all cases: pull-down binding Z-score (relative to library population); higher = stronger binding
Conditions in all cases: RNA library: Library-2
[1] = test system: TO-3-N3-2 (biotin conjugate)
How it was run: (§1)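 Heat-folded RNA library (1 μg, Cy5 or Cy3 end label, phosphate/NaCl/KCl buffer) was captured for 60 min at 25 °C on streptavidin beads displaying 100 pmol of biotin-conjugated small molecule, then washed three times. The bound fraction, eluted in hot SDS, was hybridised to a DNA barcode microarray at 55.5 °C for 20 h. Z-scores for binding were taken against the library mean and standard deviation after beads-only subtraction and trimmed averaging of replicate barcoded probes.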

[2] = test system: TO-3-N3 (biotin conjugate)
How it was run: as §1

[3] = test system: TO-N3-2 (biotin conjugate)
How it was run: as §1

TO-N3 (biotin conjugate) = test system: TO-N3 (biotin conjugate)
How it was run: as §1

Sequence	pull-down binding Z-score [1]	pull-down binding Z-score [2]	pull-down binding Z-score [3]	pull-down binding Z-score (TO-N3 (biotin conjugate))
AUUAUGUGUACCUUCCUUACCCAGAUCCAUCAAGAAUCCUAGGGGCCGGCUGUUUUGUAGAUGAUAUCGUAAAAACAGAUGGUACACUUAUGAU [DMSMaPseq_invitro_SARS-CoV-2_Multi_47_ComplexLevel_1]	0.0322	-0.234	0.511	0.0551
AUUCUAUUCUAUUCUAUUCU [r(AUUCU)4]	-0.0109	1.33	-0.629	1.03
AUUCUGAAGUUGUUCUUAAAAAGUUGAAGAAGUCUUUGAAU [DMSMaPseq_invitro_SARS-CoV-2_Motif_213]	-0.324	-0.963	-0.353	-1.03
AUUGACAUUAAUGGCAAUCUUCAUCCAGAUUCUGCCACUCUUGUUAGU [DMSMaPseq_invitro_SARS-CoV-2_Motif_73]	-0.197	-0.785	-0.113	-0.723
AUUGGCGACCCUGCUCAAU [DMSMaPseq_invitro_SARS-CoV-2_Motif_311]	-0.309	0.191	-0.232	0.0933
AUUGGUGCAGGUAUAUGCGCUAGU	-0.674	-0.974	-0.926	-1.16
AUUGUUACAUAAACCUAUUGUUUGGCAUGUUAACAAU	-0.197	-0.915	-0.663	-0.895
AUUGUUCAACUUAGUGAAAUUAGUAUGGACAAU	0.243	0.851	-0.828	0.606
AUUGUUGUCGCUUCCAAGAAAAGGACGAAGAUGACAAU [DMSMaPseq_invitro_SARS-CoV-2_Motif_245]	-0.272	0.287	-0.371	-0.00678
AUUUGAACUCUACUAAUGUCACUAUUGCAACCUACUGUACUGGUUCUAUACCUUGUAGUGUUUGUCUUAGUGGUUUAGAU	-0.244	-0.873	-0.913	-1.06
AUUUUUCUAAACUGAUAAAU [DMSMaPseq_invitro_SARS-CoV-2_Motif_131]	-0.194	-0.374	-1.08	-0.771
CAAAUGUGCCUUUCAACUCUCAUGAAGUGUGAUCAUUGUGGUGAAACUUCAUGGCAGACGGGCGAUUUUG	-0.412	-0.685	0.555	-0.576
CAACAAAAGUUG [SHAPE_invivo_SARS-CoV-2_Motif_413]	-0.787	-0.893	-1.52	-1.44
CAACAAUGUGUGAUAUCAGACAACUACUAUUUGUAGUUGAAGUUGUUG	0.0207	-0.133	-0.217	-0.104
CAACCUAAAUAGAGGUAUG	-0.292	-0.399	-0.591	-0.716
CAACGGUACUAUUACCGUUG	-0.426	-0.275	-1.59	-0.553
CAACGUAAGUUG [DMSMaPseq_invitro_SARS-CoV-2_Motif_215]	-0.477	-0.34	-1.6	-0.732
CAACUCUCAUGAAGUGUGAUCAUUGUGGUGAAACUUCAUGGCAGACGGGCGAUUUUGUUAAAGCCACUUGCGAAUUUUG	-0.197	-0.573	0.0444	-0.161
CAACUGAAAUCUAUCAGGCCGGUAGCACACCUUGUAAUGGUGUUGAAGGUUUUAAUUG [SHAPE_invivo_SARS-CoV-2_Motif_433]	-0.292	-0.552	0.0571	-0.566
CAACUUACAAAUUAAAUGUUG	-0.152	-0.448	-1.06	-0.698
CAAGAGAAGUGGGUUUUGUCGUGCCUGGUUUGCCUGGCACGAUAUUACGCACAACUAAUG	-0.209	-0.455	-0.297	-0.438
CAAGGACCUGCCUAAAGAAAUCACUGUUGCUACAUCACGAACGCUUUCUUAUUACAAAUUGGGAGCUUCGCAGCGUGUAGCAGGUGACUCAGGUUUUG [DMSMaPseq_invitro_SARS-CoV-2_Motif_486]	-0.309	-0.688	0.921	-0.158
CAAGGCUAUUGAUGGUGGUGUCACUCGUGACAUAGCAUCUACAGAUACUUG [SHAPE_invivo_SARS-CoV-2_Motif_176]	-0.243	-0.614	0.281	-0.424
CAAGGGUACACACCACUG	-0.131	0.824	0.0749	0.81
CAAUACAUAAGAAAGCUACAUGAUGAGUUAACAGGACACAUGUUAGACAUGUAUUCUGUUAUGCUUACUAAUGAUAACACUUCAAGGUAUUG	0.625	-0.424	-0.157	-0.411

Sequence	pull-down binding Z-score [1]	pull-down binding Z-score [2]	pull-down binding Z-score [3]	pull-down binding Z-score (TO-N3 (biotin conjugate))
CAAUGUGUGAUAUCAGACAACUACUAUUUGUAGUUGAAGUUGUUGAUAAGUACUUUG [DMSMaPseq_invitro_SARS-CoV-2_Motif_268]	-0.487	-0.462	-0.156	0.105
CACAAGGCAGAUGGGCUAUAUAAACGUUUUCGCUUUUCCGUUUACGAUAUAUAGUCUACUCUUGUG	-0.5	-0.81	-0.455	-0.787
CACAGAAAAGUACUGUG [SHAPE_invivo_SARS-CoV-2_Motif_52]	0.427	1.15	-0.279	0.891
CACAUCAGUAGUCUUACUCUCAGUUUUGCAACAACUCAGAGUAGAAUCAUCAUCUAAAUUGUG [DMSMaPseq_invitro_SARS-CoV-2_Motif_209]	-0.352	-0.736	-0.741	-0.843
CACAUCUAGGUUUCGUCCGGGUGUG [SARS-CoV-2-Conserved-Structured-16_Interval-158-277_Motif_2]	-0.459	0.468	-0.319	0.254
CACAUGAAGGUAAAACAUUUUAUGUUUUACCUAAUGAUG	-0.743	-0.659	-0.256	-0.73
CACCAAGACUACUUACUGGUG [IAV_invivo_PB1_2_Motif_22+IAV_invivo_PB1_2_Motif_22]	-0.501	-0.338	-1.37	-0.706
CACCACUUAACCGAAAUUAUGUCUUUACUGGUUAUCGUGUAACUAAAAACAGUAAAGUACAAAUAGGAGAGUACACCUUUGAAAAAGGUGACUAUGGUG	-0.419	-0.803	-0.309	-0.623
CACCAUCUGGUG [DMSMaPseq_invitro_SARS-CoV-2_Motif_188]	-0.158	0.319	-1.15	0.0701
CACCCGCGAAGAAGCUAUAAGACAUGUACGUGCAUGGAUUGGCUUCGAUGUCGAGGGGUG	-0.23	0.929	0.0562	0.845
CACGUCCAACUCAGUUUGCCUGUUUUACAGGUUCGCGACGUG	-0.0582	0.0988	0.192	0.0672
CACUAAAAAGUGGAAAUACCCACAAGUUAAUG	-0.22	-0.634	-0.609	-0.552
CACUCAAAGGCGGUGCACCAACAAAGGUUACUUUUGGUGAUGACACUGUGAUAGAAGUG [DMSMaPseq_invitro_SARS-CoV-2_Motif_50]	-0.205	-0.531	-0.0256	-0.234
CACUGUACAGUCUAAAAUGUCAGAUGUAAAGUG [DMSMaPseq_invitro_SARS-CoV-2_Motif_208]	-0.0983	-0.25	-0.645	-0.414
CACUUAUCUUAGCCUACUGUAAUAAGACAGUAGGUGAGUUAGGUG	-0.273	-0.861	-1.07	-1.2
CACUUCUUUCUUUGAGAGAAGUG	-0.228	-0.323	-1.42	-0.669
CAGACAACACAUUUGUGUCUG	-0.67	-1.07	-1.8	-1.45
CAGACUUUAUGAGUGUCUCUAUAGAAAUAGAGAUGUUGACACAGACUUUGUGAAUGAGUUUUACGCAUAUUUGCGUAAACAUUUCUCAAUGAUGAUACUCUCUG	-0.449	-0.919	-1.1	-1.21
CAGACUUUGUGAAUGAGUUUUACGCAUAUUUGCGUAAACAUUUCUCAAUGAUGAUACUCUCUG	-0.222	-0.682	-0.783	-0.747
CAGAGACUUGAAGAUGUCUUUG [IAV_invivo_M1_M2_7_Motif_2+IAV_invivo_M1_M2_7_Motif_2]	-0.362	-0.637	-0.242	-0.897
CAGAGUACUCAAUGGUCUUUG	-0.543	-0.33	-0.606	-0.395
CAGAGUCACAUGUUGACACUG	-0.263	0.214	-0.894	-0.0159
CAGAGUCGUAUUUGUCUUAUGGGCACAUGGCUUUG [SHAPE_invivo_SARS-CoV-2_Motif_350]	-0.171	0.361	-0.215	0.131
CAGCAAGAACUG [DMSMaPseq_invitro_SARS-CoV-2_Motif_202]	-0.578	-0.324	-0.724	-0.633
CAGGACACGAGUAACUCGUCUAUCUUCUG [SARS-CoV-2-Conserved-Structured-36_Interval-120-237_Motif_2]	-0.0048	0.225	0.379	0.324
